Results: PMC8634867

Molecular target: C10A mutant of Arabidopsis thaliana cytochrome c1, soluble domain (Arabidopsis thaliana)
Assay: BLI; His6-tagged Cc1 (50 ug/mL) immobilised on Ni-NTA biosensors (Octet RED 96e); Cc at 0.3215-10 uM; 10 mM sodium phosphate pH 7.4, 0.01 uM rabbit serum albumin, 0.01% Triton X-100; both proteins reduced; wavelength shift at equilibrium fitted to a non-linear equation with a linear non-specific term; in duplicate

human cytochrome c K8Q acetyl-mimetic mutant (from UniProt P99999 1-105) (natural protein)
Kd: 99 nM

human cytochrome c K53Q acetyl-mimetic mutant (from UniProt P99999 1-105) (natural protein)
Kd: 116 nM

human cytochrome c, wild-type (from UniProt P99999 1-105) (natural protein)
Kd: 137 nM
